Laboratory results from PMC9317961, “Deafness-related protein PDZD7 forms complex with the C-terminal tail of FCHSD2” (Biochemical Journal, 2022).

T1: PDZD7 PDZ3 (a.a. 842-946) (mouse, UniProt E9Q9W7 842-946)
T1 construct: As used in ITC; also called WT PDZD7 PDZ3; source: E. coli BL21 (DE3), purified (nickel-NTA, SEC); not shown: Trx (from the vector pET.32M.3C)
T1 sequence (looked up): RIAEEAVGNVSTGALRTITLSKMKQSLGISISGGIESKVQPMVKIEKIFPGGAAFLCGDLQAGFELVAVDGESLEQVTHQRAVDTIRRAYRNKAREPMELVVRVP

T2: Trx-tagged PDZD7 PDZ3 (mouse, UniProt E9Q9W7 842-946)
T2 construct: As used in SEC-MALS, thioredoxin tag kept; monomer by SEC-MALS; also called Trx-PDZD7 PDZ3; source: E. coli BL21 (DE3), purified (nickel-NTA, SEC)
T2 sequence (looked up): T1 sequence (looked up)

B1: FCHSD2 tail (a.a. 729-740) (peptide, UniProt Q3USJ8 729-740, looked up)
chain: TEKMEDVEITLV
notes: As used in ITC; also called WT FCHSD2 tail; source: E. coli BL21 (DE3), purified (nickel-NTA, SEC)
B2: Trx-tagged FCHSD2 tail (peptide, UniProt Q3USJ8 729-740, looked up)
chain: TEKMEDVEITLV
notes: FCHSD2, residues 729-740; As used in SEC-MALS, thioredoxin tag kept; monomer by SEC-MALS; also called Trx-FCHSD2 tail; source: E. coli BL21 (DE3), purified (nickel-NTA, SEC)

Experiments:
[1] = biological target: T1, PDZD7 PDZ3 (a.a. 842-946); test: ITC; MicroCal iTC200, 25°C; ~500 μM protein in the syringe titrated into ~50 μM partner in the cell; one-site binding model; settings: both partners purified
Trx-tagged PDZD7 PDZ3 = biological target: T2, Trx-tagged PDZD7 PDZ3; test: SEC-MALS; Superose 12 10/300 GL column, miniDAWN and Optilab detectors; ~300 μl of 50 μM protein loaded; Trx-tagged proteins alone and mixed; settings: both partners purified

| Binder | Kd [1] | stoichiometry N (Trx-tagged PDZD7 PDZ3) |
| --- | --- | --- |
| B1 | ~1510 nM | – |
| B2 | – | 1 |
